Test results published in patent publication US20260345776 (published 2026).

Legend:
FOLR1 [1] = target: T1, FOLR1 (human, UniProt P15328); experiment: BLI, 25C
FOLR1 [2] = target: T1, FOLR1; experiment: FACS, FOLR+ KB cells

T1 sequence (P15328 25-234): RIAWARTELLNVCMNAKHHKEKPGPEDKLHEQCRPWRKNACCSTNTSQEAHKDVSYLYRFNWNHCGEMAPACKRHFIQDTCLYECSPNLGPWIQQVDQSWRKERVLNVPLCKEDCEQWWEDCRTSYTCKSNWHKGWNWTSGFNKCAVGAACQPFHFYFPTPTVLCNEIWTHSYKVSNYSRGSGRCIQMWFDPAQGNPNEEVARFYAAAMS

Kd (FOLR1 [1]): 0.345 nM
Kd (FOLR1 [2]): 16.1 nM
B1: b-SpyTag003(D2)-K(folate) (peptide)
chain: RGVPHIVMVDAYKRYKG
modifications: biotinylated; two D-arginine substitutions; additional C-terminal Lys conjugated to folate (folate is the FOLR1-binding moiety)
